Data on one protein can be found in patent publication US20130058939.

The data set has as its target mouse NMDA receptor NR1 subunit, P35438.

B1: rt-PA (alteplase), recombinant human t-PA (protein)
chain: SYQVICRDEKTQMIYQQHQSWLRPVLRSNRVEYCWCNSGRAQCHSVPVKSCSEPRCFNGGTCQQALYFSDFVCQCPEGFAGKCCEIDTRATCYEDQGISYRGTWSTAESGAECTNWNSSALAQKPYSGRRPDAIRLGLGNHNYCRNPDRDSKPWCYVFKAGKYSSEFCSTPACSEGNSDCYFGNGSAYRGTHSLTESGASCLPWNSMILIGKVYTAQNPSAQALGLGKHNYCRNPDGDAKPWCHVLKNRRLTWEYCDVPSCSTCGLRQYSQPQFRIKGGLFADIASHPWQAAIFAKHRRSPGERFLCGGILISSCWILSAAHCFQERFPPHHLTVILGRTYRVVPGEEEQKFEVEKYIVHKEFDDDTYDNDIALLQLKSDSSRCAQESSVVRTVCLPPADLQLPDWTECELSGYGKHEALSPFYSERLKEAHVRLYPSSRCTSQHLLNRTVTDNMLCAGDTRSGGPQANLHDACQGDSGGPLVCLNDGRMTLVGIISWGLGCGQKDVPGVYTKVTNYLDWIRDNMRP
As to B1, the “net integrated increase in [Ca2+]i evoked by NMDA after 15 min exposure to t-PA (20 µg/ml)” value is “the net integrated increase in [Ca^2+]i (area under the curve expressed in arbitrary units) was enhanced by 37%”.
